Consider eight molecules from patent publication US11402384B2 (Duke University, priority 2015, dated 2022).

Entries after “also recorded” stand apart in the source; their conditions may differ.

This assay in a line: Ratiometric fluorescence glucose titration of fluorescent conjugates. The format is binding. On the set-up: key to Shape (fluorescence response to glucose) / Change (fluorescence response to glucose): m, monochromatic; d, dichromatic (i.e. spectral shape change); 0, no change. The conditions noted are these: for fluorescence response to glucose: monochromatic or dichromatic emission change. The text has this: Semi-synthetic FRSs can be engineered by site-specifically attaching thiol-reactive, environmentally sensitive fluorophores that respond to ligand-mediated conformational changes. Identification of FRS candidates that can be used for sensing applications comprises three steps: • 1. Cysteine scan. Mutant glucose-binding proteins containing single cysteines are constructed for site-specific attachment of thiol-reactive fluorophores. […] Candidate positions fall into three classes: endosteric, replacing a residue that contacts the ligand directly; peristeric, located at the rim of the binding site; allosteric (Marvin et al., 1997, Proc Natl Acad Sci USA, 94, 4366-71; Marvin, 1998, J Am Chem Soc, 120, 7-11), located outside the binding site at sites that undergo local structural changes in concert with the hinge-bending motion. • 2. Fluorophore screening. Thiol-reactive, environmentally sensitive fluorophores are attached to each cysteine mutant prepared in step 1. • 3. Evaluation of the glucose-mediated change of all the fluorescent conjugates prepared in step 2. Responses to ligand binding in which there is both a change in fluorescence emission intensity and spectral shape are essential for chemometric applications, because such changes enable ratiometric measurements. Changes in spectral shape typically are accompanied by a shift in the wavelength of the emission intensity maxima. Three classes of fluorescent responses are possible: • i. No response. • ii. Monochromatic response (emission intensity increases or decreases without a change in spectral shape) • iii.
Determination of temperature- and ligand-dependent fluorescence landscapes. […] Temperatures were advanced in 1K steps.
Determination of emission intensity spectra.
2 For a single glucose-binding site, the fractional saturation is given by […]

The mark [1] stands for this setting: tsGBP2 cysteine scan, Acrylodan conjugate.
[2] abbreviates: ttGBP1 homologs, 13C-equivalent mutants labeled with Acrylodan or Badan.
The mark [3] stands for this setting: tsGBP2 cysteine scan, Badan conjugate.

B1: E13C Acrylodan: tsGBP2_C13 (SEQ ID NO: 20) Acrylodan conjugate (conjugate)
chain: MKLEIFSWWAGDCGPALEALIRLYKQKYPGVEVINATVTGGAGVNAKAVLKTRMLGGDPPDTFQVHAGQELIGTWVVADRMEDLTSLFRQEGWLQAFPKGLIDLLSYKGGIWSVPVNIHRSNVMWYIPAKLKEWGVTPPKTWAEFLATAQTLKRKGLEAPLALGENWTQQHLWESVALATLGADGWNNLWSGKLKFTDPKAVAVWETFGKVLDAANKDAAGLSWQQAVDRVVQGKAAFNIMGDWAAGYMSTTLKLKPGTDFAWTPSPGTSGIFMMLSDSFGLPKGAKNRQNAINWLKLVGSKEGQDTFNPLKGSIAARLDSDPAKYNAYGQSAMKDWKSNRIVGSLVHGAVAPESFMSQFGTVMEIFLQSRNPQAAANAAQAIANQVGLGRGGSHHHHHH
modifications: Acrylodan conjugate; tsGBP2_C13 (13C substitution mutant with signal peptide replaced with M and a GGSHHHHHH at C-terminus)
B1: the “fluorescence response to glucose” value reads like this: (listed as 13C.Acrylodan conjugate) “strong dichromatic response; also recorded: strongest dichromatic response”; (listed as Acrylodan conjugate attached to E13C) “largest, wavelength-dependent changes in fluorescence emission intensities”. Moreover, the “Shape (fluorescence response to glucose)” value under setting [1] is “d” and the “Shape (fluorescence response to glucose)” value under setting [2] is listed as “d”.

B2: G41C Acrylodan: tsGBP2_C41 (SEQ ID NO: 21) Acrylodan conjugate (conjugate)
chain: MKLEIFSWWAGDEGPALEALIRLYKQKYPGVEVINATVTGCAGVNAKAVLKTRMLGGDPPDTFQVHAGQELIGTWVVADRMEDLTSLFRQEGWLQAFPKGLIDLLSYKGGIWSVPVNIHRSNVMWYIPAKLKEWGVTPPKTWAEFLATAQTLKRKGLEAPLALGENWTQQHLWESVALATLGADGWNNLWSGKLKFTDPKAVAVWETFGKVLDAANKDAAGLSWQQAVDRVVQGKAAFNIMGDWAAGYMSTTLKLKPGTDFAWTPSPGTSGIFMMLSDSFGLPKGAKNRQNAINWLKLVGSKEGQDTFNPLKGSIAARLDSDPAKYNAYGQSAMKDWKSNRIVGSLVHGAVAPESFMSQFGTVMEIFLQSRNPQAAANAAQAIANQVGLGRGGSHHHHHH
modifications: Acrylodan conjugate; tsGBP2_C41 (41C substitution mutant with signal peptide replaced with M and a GGSHHHHHH at C-terminus)
With B2, the “Shape (fluorescence response to glucose)” value under setting [1] is reported as “d”.

B3: A42C Acrylodan: tsGBP2_C42 (SEQ ID NO: 22) Acrylodan conjugate (conjugate)
chain: MKLEIFSWWAGDEGPALEALIRLYKQKYPGVEVINATVTGGCGVNAKAVLKTRMLGGDPPDTFQVHAGQELIGTWVVADRMEDLTSLFRQEGWLQAFPKGLIDLLSYKGGIWSVPVNIHRSNVMWYIPAKLKEWGVTPPKTWAEFLATAQTLKRKGLEAPLALGENWTQQHLWESVALATLGADGWNNLWSGKLKFTDPKAVAVWETFGKVLDAANKDAAGLSWQQAVDRVVQGKAAFNIMGDWAAGYMSTTLKLKPGTDFAWTPSPGTSGIFMMLSDSFGLPKGAKNRQNAINWLKLVGSKEGQDTFNPLKGSIAARLDSDPAKYNAYGQSAMKDWKSNRIVGSLVHGAVAPESFMSQFGTVMEIFLQSRNPQAAANAAQAIANQVGLGRGGSHHHHHH
modifications: Acrylodan conjugate; tsGBP2_C42 (42C substitution mutant with signal peptide replaced with M and a GGSHHHHHH at C-terminus)
Regarding B3, the “Shape (fluorescence response to glucose)” value under setting [1] was 0.

B4: W244C Acrylodan: tsGBP2_C244 (SEQ ID NO: 30) Acrylodan conjugate (conjugate)
chain: MKLEIFSWWAGDEGPALEALIRLYKQKYPGVEVINATVTGGAGVNAKAVLKTRMLGGDPPDTFQVHAGQELIGTWVVADRMEDLTSLFRQEGWLQAFPKGLIDLLSYKGGIWSVPVNIHRSNVMWYIPAKLKEWGVTPPKTWAEFLATAQTLKRKGLEAPLALGENWTQQHLWESVALATLGADGWNNLWSGKLKFTDPKAVAVWETFGKVLDAANKDAAGLSWQQAVDRVVQGKAAFNIMGDCAAGYMSTTLKLKPGTDFAWTPSPGTSGIFMMLSDSFGLPKGAKNRQNAINWLKLVGSKEGQDTFNPLKGSIAARLDSDPAKYNAYGQSAMKDWKSNRIVGSLVHGAVAPESFMSQFGTVMEIFLQSRNPQAAANAAQAIANQVGLGRGGSHHHHHH
modifications: Acrylodan conjugate; tsGBP2_C244 (244C substitution mutant with signal peptide replaced with M and a GGSHHHHHH at C-terminus)
For B4, the “fluorescence response to glucose” value is on record as “strong monochromatic response”. In addition, under setting [1], the “Shape (fluorescence response to glucose)” value is given as “m”.

B5: G41C Badan: tsGBP2_C41 (SEQ ID NO: 21) Badan conjugate (conjugate)
chain: MKLEIFSWWAGDEGPALEALIRLYKQKYPGVEVINATVTGCAGVNAKAVLKTRMLGGDPPDTFQVHAGQELIGTWVVADRMEDLTSLFRQEGWLQAFPKGLIDLLSYKGGIWSVPVNIHRSNVMWYIPAKLKEWGVTPPKTWAEFLATAQTLKRKGLEAPLALGENWTQQHLWESVALATLGADGWNNLWSGKLKFTDPKAVAVWETFGKVLDAANKDAAGLSWQQAVDRVVQGKAAFNIMGDWAAGYMSTTLKLKPGTDFAWTPSPGTSGIFMMLSDSFGLPKGAKNRQNAINWLKLVGSKEGQDTFNPLKGSIAARLDSDPAKYNAYGQSAMKDWKSNRIVGSLVHGAVAPESFMSQFGTVMEIFLQSRNPQAAANAAQAIANQVGLGRGGSHHHHHH
modifications: Badan conjugate; tsGBP2_C41 (41C substitution mutant with signal peptide replaced with M and a GGSHHHHHH at C-terminus)
On to B5, for which, under setting [3], the “Shape (fluorescence response to glucose)” value is on record as “m”.

B6: D12C Acrylodan: tsGBP2_C12 (SEQ ID NO: 19) Acrylodan conjugate (conjugate)
chain: MKLEIFSWWAGCEGPALEALIRLYKQKYPGVEVINATVTGGAGVNAKAVLKTRMLGGDPPDTFQVHAGQELIGTWVVADRMEDLTSLFRQEGWLQAFPKGLIDLLSYKGGIWSVPVNIHRSNVMWYIPAKLKEWGVTPPKTWAEFLATAQTLKRKGLEAPLALGENWTQQHLWESVALATLGADGWNNLWSGKLKFTDPKAVAVWETFGKVLDAANKDAAGLSWQQAVDRVVQGKAAFNIMGDWAAGYMSTTLKLKPGTDFAWTPSPGTSGIFMMLSDSFGLPKGAKNRQNAINWLKLVGSKEGQDTFNPLKGSIAARLDSDPAKYNAYGQSAMKDWKSNRIVGSLVHGAVAPESFMSQFGTVMEIFLQSRNPQAAANAAQAIANQVGLGRGGSHHHHHH
modifications: Acrylodan conjugate; tsGBP2_C12 (12C substitution mutant with signal peptide replaced with M and a GGSHHHHHH at C-terminus)
Turning to B6, the “Shape (fluorescence response to glucose)” value under setting [1] is “m”.

B7: E13C Badan: tsGBP2_C13 (SEQ ID NO: 20) Badan conjugate (conjugate)
chain: MKLEIFSWWAGDCGPALEALIRLYKQKYPGVEVINATVTGGAGVNAKAVLKTRMLGGDPPDTFQVHAGQELIGTWVVADRMEDLTSLFRQEGWLQAFPKGLIDLLSYKGGIWSVPVNIHRSNVMWYIPAKLKEWGVTPPKTWAEFLATAQTLKRKGLEAPLALGENWTQQHLWESVALATLGADGWNNLWSGKLKFTDPKAVAVWETFGKVLDAANKDAAGLSWQQAVDRVVQGKAAFNIMGDWAAGYMSTTLKLKPGTDFAWTPSPGTSGIFMMLSDSFGLPKGAKNRQNAINWLKLVGSKEGQDTFNPLKGSIAARLDSDPAKYNAYGQSAMKDWKSNRIVGSLVHGAVAPESFMSQFGTVMEIFLQSRNPQAAANAAQAIANQVGLGRGGSHHHHHH
modifications: Badan conjugate; tsGBP2_C13 (13C substitution mutant with signal peptide replaced with M and a GGSHHHHHH at C-terminus)
For B7, the “Shape (fluorescence response to glucose)” value is listed as “m” under setting [3] and “m” under setting [2]. The “Change (fluorescence response to glucose)” value (tsGBP 13C affinity mutants, Acrylodan or Badan conjugates) is recorded as “m/d”.

B8: D12C Badan: tsGBP2_C12 (SEQ ID NO: 19) Badan conjugate (conjugate)
chain: MKLEIFSWWAGCEGPALEALIRLYKQKYPGVEVINATVTGGAGVNAKAVLKTRMLGGDPPDTFQVHAGQELIGTWVVADRMEDLTSLFRQEGWLQAFPKGLIDLLSYKGGIWSVPVNIHRSNVMWYIPAKLKEWGVTPPKTWAEFLATAQTLKRKGLEAPLALGENWTQQHLWESVALATLGADGWNNLWSGKLKFTDPKAVAVWETFGKVLDAANKDAAGLSWQQAVDRVVQGKAAFNIMGDWAAGYMSTTLKLKPGTDFAWTPSPGTSGIFMMLSDSFGLPKGAKNRQNAINWLKLVGSKEGQDTFNPLKGSIAARLDSDPAKYNAYGQSAMKDWKSNRIVGSLVHGAVAPESFMSQFGTVMEIFLQSRNPQAAANAAQAIANQVGLGRGGSHHHHHH
modifications: Badan conjugate; tsGBP2_C12 (12C substitution mutant with signal peptide replaced with M and a GGSHHHHHH at C-terminus)
With B8, under setting [3], the “Shape (fluorescence response to glucose)” value is “m”.
